Literature values, collected in publication PMC3522611.

Molecular target: EGFR (Homo sapiens) (UniProt P00533)

- Kd: 3.8 nM
Substance: HB-EGF (from UniProt Q99075)
